In publication PMC4207998 (The Journal of Biological Chemistry, 2014):

Molecular target: T1, monomeric α-toxin (AT) of Staphylococcus aureus, as crystallised (Staphylococcus aureus subsp. aureus …)
T1 chain: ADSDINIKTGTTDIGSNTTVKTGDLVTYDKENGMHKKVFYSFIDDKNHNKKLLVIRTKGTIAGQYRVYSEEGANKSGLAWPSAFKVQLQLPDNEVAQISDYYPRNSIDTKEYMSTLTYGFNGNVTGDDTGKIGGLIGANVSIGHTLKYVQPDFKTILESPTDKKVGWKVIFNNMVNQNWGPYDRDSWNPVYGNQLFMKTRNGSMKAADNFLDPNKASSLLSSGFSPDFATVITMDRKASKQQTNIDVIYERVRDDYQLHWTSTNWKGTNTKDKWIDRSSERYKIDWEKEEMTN
Assay: crystal structure
Settings: both partners purified

B1: MEDI4893 Fab (Fab, V domains shown)
VH: EVQLVESGGGLVQPGGSLRLSCAASGFTFSSHDMHWVRQATGKGLEWVSGIGTAGDTYYPDSVKGRFTISRENAKNSLYLQMNSLRAGDTAVYYCARDRYSPTGHYYGMDVWGQGTTVTVSS
VL: DIQMTQSPSTLSASVGDRVTITCRASQSISSWLAWYQQKPGKAPKLLIYKASSLESGVPSRFSGSGSGTEFTLTISSLQPDDFATYYCKQYADYWTFGQGTKVEIK
binding result: binds
